Test results published in article PMC2114603.

Molecular target: lymphoma 4.1-like protein (68/65-kD phosphoprotein doublet) of mouse T-lymphoma cells (mouse (endogenous in BW 5147))
Experiment: co-sedimentation
Settings: scale: gp 25 per 68/65-kD protein

Sequence of lymphoma 4.1-like protein (68/65-kD phosphoprotein doublet) of mouse T-lymphoma cells (mouse (endogenous in BW 5147)) (P48193 whole entry): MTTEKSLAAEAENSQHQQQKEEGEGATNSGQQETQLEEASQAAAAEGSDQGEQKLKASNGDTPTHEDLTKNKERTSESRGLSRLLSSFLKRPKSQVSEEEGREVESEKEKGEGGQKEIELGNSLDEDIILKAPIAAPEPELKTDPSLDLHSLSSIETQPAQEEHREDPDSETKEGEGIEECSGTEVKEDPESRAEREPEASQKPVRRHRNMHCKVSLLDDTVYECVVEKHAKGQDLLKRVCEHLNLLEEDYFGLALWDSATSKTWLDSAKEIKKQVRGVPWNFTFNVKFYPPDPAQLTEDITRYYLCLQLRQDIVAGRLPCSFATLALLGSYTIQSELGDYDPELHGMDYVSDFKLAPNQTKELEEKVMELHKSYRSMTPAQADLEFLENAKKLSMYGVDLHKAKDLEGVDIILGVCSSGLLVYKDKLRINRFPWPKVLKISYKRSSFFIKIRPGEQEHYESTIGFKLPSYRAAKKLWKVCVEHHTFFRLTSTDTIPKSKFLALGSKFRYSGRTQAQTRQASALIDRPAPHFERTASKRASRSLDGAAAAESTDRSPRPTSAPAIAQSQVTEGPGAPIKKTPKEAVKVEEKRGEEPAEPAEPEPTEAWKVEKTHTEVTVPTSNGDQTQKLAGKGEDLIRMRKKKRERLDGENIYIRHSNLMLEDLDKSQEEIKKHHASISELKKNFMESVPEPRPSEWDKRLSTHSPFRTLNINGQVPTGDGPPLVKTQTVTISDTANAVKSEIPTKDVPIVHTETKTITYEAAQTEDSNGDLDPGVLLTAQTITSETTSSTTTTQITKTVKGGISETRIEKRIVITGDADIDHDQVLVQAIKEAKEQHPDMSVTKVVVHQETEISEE

- stoichiometry N: 4
B1: Thy-1 glycoprotein (gp 25) of mouse T-lymphoma cells (natural protein)
chain: QKVTSLTACLVNQNLRLDCRHENNTKDNSIQHEFSLTREKRKHVLSGTLGIPEHTYRSRVTLSNQPYIKVLTLANFTTKDEGDYFCELQVSGANPMSSNKSISVYRDKLVKC
modifications: glycoprotein ([3H]glucosamine-labelled); 125I-labelled or unlabelled
